# Tests used:
# Assay in all cases: purified protein
# [1] = tested on: CC(C)(O/N=C(\C(=O)N[C@@H]1C(=O)N2C(C(=O)[O-])=C(C[n+]3ccccc3)CS[C@H]12)c1csc(N)n1)C(=O)O
# [2] = tested on: C[C@@H](O)[C@H]1C(=O)N2C(C(=O)O)=C(SCCN=CN)C[C@H]12
# [3] = tested on: C[C@@H](O)[C@H]1C(=O)N2C(C(=O)O)=C(S[C@@H]3CN[C@H](C(=O)N(C)C)C3)[C@H](C)[C@H]12
substance,measurement,setting,value
KPC-2 (Klebsiella pneumoniae),Km,[1],580 µM
same,kcat,[1],42.9 s⁻¹
same,kcat/Km,[1],74000 M⁻¹ s⁻¹
same,Km,[2],380 µM
same,kcat,[2],199 s⁻¹
same,kcat/Km,[2],523000 M⁻¹ s⁻¹
same,Km,[3],420 µM
same,kcat,[3],112 s⁻¹
same,kcat/Km,[3],268000 M⁻¹ s⁻¹

# Reference: paper PMC12593533, “Unravelling tandem repeat-mediated mutagenesis drive rapid diversification of KPC enzymes: emergence of blaKPC-263 and enhanced resistance to ceftazidime-avibactam” (eBioMedicine, 2025)
